Here are results for one molecule from patent publication US20250326827A1 (SCHOLAR ROCK, published 2025).

The target of this assay is latent myostatin (human, UniProt O14793 24-266; O14793 267-375). Nature of the assay: cell-based or functional assay.

B1: Apitegromab (antibody, human IgG4 S228P, lambda, V domains shown)
VH: QVQLVESGGGVVQPGRSLRLSCAASGFTFSSYGMHWVRQAPGKGLEWVAVISYDGSNKYYADSVKGRFTISRDNSKNTLYLQMNSLRAEDTAVYYCARDLLVRFLEWSHYYGMDVWGQGTTVTVSS
VL: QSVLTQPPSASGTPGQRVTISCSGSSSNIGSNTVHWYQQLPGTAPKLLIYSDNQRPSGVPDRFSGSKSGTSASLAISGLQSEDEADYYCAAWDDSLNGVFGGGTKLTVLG
As to B1, the “target engagement, as measured by latent myostatin (serum level after treatment vs baseline; 2 mg/kg and 20 mg/kg IV every 4 weeks)” value was determined as 100 fold.
